The numbers were not newly measured in patent publication US10373702B2, “Water-soluble trans-membrane proteins and methods for the preparation and use thereof” (Massachusetts Institute of Technology, priority 2014, dated 2019), which cites them from elsewhere.

By Kd is commonly meant the free concentration of one partner at which half of the binding sites on the other are occupied at equilibrium, for simple one-to-one binding.

For the data set, the target named is SDF1a (Homo sapiens, UniProt P48061). Particulars: native membrane-bound receptor with SDF1a.
Sequence of SDF1a (P48061 22-89 limits assumed, species assumed): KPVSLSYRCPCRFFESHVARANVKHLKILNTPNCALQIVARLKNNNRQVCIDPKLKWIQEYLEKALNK
Sequence of SDF1a (P61073 whole entry partner, species assumed): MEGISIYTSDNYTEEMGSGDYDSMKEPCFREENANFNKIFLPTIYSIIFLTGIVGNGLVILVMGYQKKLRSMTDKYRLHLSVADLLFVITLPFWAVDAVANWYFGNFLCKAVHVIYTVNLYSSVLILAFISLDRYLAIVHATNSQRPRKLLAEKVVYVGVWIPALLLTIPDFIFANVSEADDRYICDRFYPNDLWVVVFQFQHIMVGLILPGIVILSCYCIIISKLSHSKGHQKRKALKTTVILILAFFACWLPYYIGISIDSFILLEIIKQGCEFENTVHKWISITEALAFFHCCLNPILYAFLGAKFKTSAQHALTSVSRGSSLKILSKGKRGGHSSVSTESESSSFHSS

B1: CXCR4: native CXC chemokine receptor type 4 isoform a, 356 amino acids (protein)
chain: MSIPLPLLQIYTSDNYTEEMGSGDYDSMKEPCFREENANFNKIFLPTIYSIIFLTGIVGNGLVILVMGYQKKLRSMTDKYRLHLSVADLLFVITLPFWAVDAVANWYFGNFLCKAVHVIYTVNLYSSVLILAFISLDRYLAIVHATNSQRPRKLLAEKVVYVGVWIPALLLTIPDFIFANVSEADDRYICDRFYPNDLWVVVFQFQHIMVGLILPGIVILSCYCIIISKLSHSKGHQKRKALKTTVILILAFFACWLPYYIGISIDSFILLEIIKQGCEFENTVHKWISITEALAFFHCCLNPILYAFLGAKFKTSAQHALTSVSRGSSLKILSKGKRGGHSSVSTESESSSFHSS
Take B1: the Kd is roughly 100 nM.
